Literature values, collected in patent US8450118B2, “Method for detecting binding interactions between membrane proteins and analytes in a homogenous assay” (Molecular Sensing, Inc., priority 2009, dated 2013).

Target: T1, mouse B1 receptor (Mus musculus, UniProt Q61125)
T1 sequence (Q61125 1-334): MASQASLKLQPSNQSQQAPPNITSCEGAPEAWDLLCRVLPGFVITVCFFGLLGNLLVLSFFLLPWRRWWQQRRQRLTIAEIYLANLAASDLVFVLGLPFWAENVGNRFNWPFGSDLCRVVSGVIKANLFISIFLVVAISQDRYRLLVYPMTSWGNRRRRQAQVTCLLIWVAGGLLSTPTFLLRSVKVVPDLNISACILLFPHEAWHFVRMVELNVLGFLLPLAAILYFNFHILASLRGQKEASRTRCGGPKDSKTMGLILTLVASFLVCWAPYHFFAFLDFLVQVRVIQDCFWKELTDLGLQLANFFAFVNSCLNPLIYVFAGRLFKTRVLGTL

- fold higher affinity for BK(1-8) compared to Lys-BK(1-8): 2-3 fold
Substance: BK(1-8): peptide generated by removal of the C-terminal arginine of bradykinin by carboxypeptidases; selective ligand at the B1 receptor (RPPGFSPF; Bradykinin; UniProt P01042 381-388, looked up, fragment)
